Bridge positions count the residues as written; N and C are the ends. Square brackets hold non-standard residues; d marks the D form. Ends that are not written are not given here. * marks the point of attachment. Acetyl(2-(4-imidazolyl)) = O=C(Cc1c[nH]cn1)*; Aib = CC(C)(N)C(=O)O
T1: human GIP receptor (human, UniProt P48546 22-466)
T1 sequence (looked up): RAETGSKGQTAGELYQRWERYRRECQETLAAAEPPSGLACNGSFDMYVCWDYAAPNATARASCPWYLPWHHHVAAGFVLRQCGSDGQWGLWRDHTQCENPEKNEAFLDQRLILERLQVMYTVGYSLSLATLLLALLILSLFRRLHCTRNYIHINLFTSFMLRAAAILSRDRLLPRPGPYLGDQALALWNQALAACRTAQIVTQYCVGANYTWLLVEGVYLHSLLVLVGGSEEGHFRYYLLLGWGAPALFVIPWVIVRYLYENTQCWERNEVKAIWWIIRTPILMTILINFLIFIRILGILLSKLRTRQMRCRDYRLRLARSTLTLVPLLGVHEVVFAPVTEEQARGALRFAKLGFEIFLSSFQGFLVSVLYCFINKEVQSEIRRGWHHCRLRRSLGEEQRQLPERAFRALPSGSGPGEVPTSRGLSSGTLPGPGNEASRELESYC


What follows are binders tested against T1, human GIP receptor (assay: cell-based or functional assay).

Row | Binder | In vitro activity compared to native-type peptide (%), vs GIP [%]
1 | Y[Aib]QGTFTSDYSKYLDEKRAKEFVQWLLDHHCSSGQPPPS (bridge 16-20) [triple agonist of SEQ ID NO: 43] | 3.7
2 | H[Aib]QGTFTSDYSKYLDEKRQKEFVQWLLDTC (bridge 16-20) [triple agonist of SEQ ID NO: 52] | 0.3
3 | H[Aib]QGTFTSDKSKYLDERACQDFVQWLLDGGPSSGAPPPS [triple agonist of SEQ ID NO: 40] | < 0.1
4 | H[Aib]QGTFTSDYSKYLDEKRQKEFVQWLLNTC (bridge 16-20) [triple agonist of SEQ ID NO: 51] | 0.1
5 | H[Aib]EGTFTSDYSIAMDEIHQKDFVNWLLAQC (bridge 16-20) [triple agonist of SEQ ID NO: 53] | 1.3
6 | H[Aib]QGTFTSDVSSYLDGQAAKEFVAWLLKGC [triple agonist of SEQ ID NO: 6] | < 0.1
7 | [Acetyl(2-(4-imidazolyl))][Aib]QGTFTSDYSICMDEIHQKDFVNWLLNTK (bridge 16-20) [triple agonist of SEQ ID NO: 49] | 3.3
8 | H[Aib]QGTFTSDKSKYLDECAAQDFVQWLLDGGPSSGAPPPS [triple agonist of SEQ ID NO: 41] | < 0.1
9 | H[Aib]QGTFTSDYSKYLDECRQKEFVQWLLNGGPSSGAPPPSG (bridge 16-20) [triple agonist of SEQ ID NO: 37] | 2.2
10 | H[Aib]QGTFTSDYSIAMDEIHQKDFVNWLLNTKC (bridge 16-20) [triple agonist of SEQ ID NO: 35] | 1.3
11 | H[Aib]QGTFTSDVSSYLLGQQQKEFIAWLVKGGGPSSGAPPPSC [triple agonist of SEQ ID NO: 5] | < 0.1
12 | H[Aib]QGTFTSDYSKYLDEKRQKEFVNWLLAQC (also: ring formation (underlined residues), positions not given here) [triple agonist of SEQ ID NO: 56] | 0.8
13 | H[Aib]QGTFTSDVSSYLDGQAAKEFIAWLVKGC [triple agonist of SEQ ID NO: 1] | < 0.1
14 | H[Aib]QGTFTSDYSKYLDEKRQKEFVNWLLAQKC (bridge 16-20) [triple agonist of SEQ ID NO: 34] | 0.6
15 | H[Aib]QGTFTSDVSSYLLGQQQKEFIAWLVKGC [triple agonist of SEQ ID NO: 4] | < 0.1
16 | HGQGTFTSDCSKQLDGQAAQEFVAWLLAGGPSSGAPPPS [triple agonist of SEQ ID NO: 44] | < 0.1
17 | HGQGTFTSDCSKYLDGQRAQDFVNWLLAGGPSSGAPPPS [triple agonist of SEQ ID NO: 48] | < 0.1
18 | HGQGTFTSDCSKYLDGQRAQEFVAWLLAGGPSSGAPPPS [triple agonist of SEQ ID NO: 47] | < 0.1
19 | HGQGTFTSDCSKYLDEQHAQEFVAWLLAGGPSSGAPPPS [triple agonist of SEQ ID NO: 46] | < 0.1
20 | HGQGTFTSDCSKYMDGQAAQDFVAWLLAGGPSSGAPPPS [triple agonist of SEQ ID NO: 45] | < 0.1
21 | H[Aib]QGTFTSDYSKYLDEKRAKEFVQWLLDHHPSSGQPPPSC (bridge 16-20) [triple agonist of SEQ ID NO: 50] | 2.7
22 | Y[Aib]QGTFTSDYSKYLDEKRAKEFVQWLLDHHPSSGQPPPSC (bridge 16-20) [triple agonist of SEQ ID NO: 42] | 7.8
23 | H[Aib]QGTFTSDYSKYLDGQHAQCFVAWLLAGGGPSSGAPPPS [triple agonist of SEQ ID NO: 39] | < 0.1
24 | H[Aib]EGTFTSDYSIAMDEIHQKDFVDWLLAEC (bridge 16-20) [triple agonist of SEQ ID NO: 54] | 0.1
25 | H[Aib]QGTFTSDYSIAMDEIHQKDFVNWLLAQC (bridge 16-20) [triple agonist of SEQ ID NO: 55] | 2.4
26 | H[Aib]QGTFTSDYSKYLCEKRQKEFVQWLLNGGPSSGAPPPSG (bridge 16-20) [triple agonist of SEQ ID NO: 36] | 0.2

Each binder was assayed against human GCG receptor (human, UniProt P47871 26-477) (assay: cell-based or functional assay).
Sequence of human GCG receptor (P47871 26-477): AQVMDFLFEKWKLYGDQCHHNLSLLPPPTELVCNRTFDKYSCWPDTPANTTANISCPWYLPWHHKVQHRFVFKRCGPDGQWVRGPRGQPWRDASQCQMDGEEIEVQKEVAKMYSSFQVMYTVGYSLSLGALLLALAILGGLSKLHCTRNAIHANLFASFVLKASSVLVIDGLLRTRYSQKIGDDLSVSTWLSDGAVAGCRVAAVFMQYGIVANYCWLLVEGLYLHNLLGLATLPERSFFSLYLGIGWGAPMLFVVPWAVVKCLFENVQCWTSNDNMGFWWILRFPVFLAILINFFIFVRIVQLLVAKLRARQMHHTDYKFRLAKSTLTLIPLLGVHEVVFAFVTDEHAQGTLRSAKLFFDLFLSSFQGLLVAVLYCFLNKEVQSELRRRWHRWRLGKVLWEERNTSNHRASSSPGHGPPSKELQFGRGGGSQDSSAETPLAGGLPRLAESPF

Row | Binder | In vitro activity compared to native-type peptide (%), vs Glucagon [%]
27 | Y[Aib]QGTFTSDYSKYLDEKRAKEFVQWLLDHHCSSGQPPPS (bridge 16-20) [triple agonist of SEQ ID NO: 43] | 88.4
28 | H[Aib]QGTFTSDYSKYLDEKRQKEFVQWLLDTC (bridge 16-20) [triple agonist of SEQ ID NO: 52] | 7.5
29 | H[Aib]QGTFTSDKSKYLDERACQDFVQWLLDGGPSSGAPPPS [triple agonist of SEQ ID NO: 40] | < 0.1
30 | H[Aib]QGTFTSDYSKYLDEKRQKEFVQWLLNTC (bridge 16-20) [triple agonist of SEQ ID NO: 51] | 2
31 | H[Aib]EGTFTSDYSIAMDEIHQKDFVNWLLAQC (bridge 16-20) [triple agonist of SEQ ID NO: 53] | 8.4
32 | H[Aib]QGTFTSDVSSYLDGQAAKEFVAWLLKGC [triple agonist of SEQ ID NO: 6] | < 0.1
33 | [Acetyl(2-(4-imidazolyl))][Aib]QGTFTSDYSICMDEIHQKDFVNWLLNTK (bridge 16-20) [triple agonist of SEQ ID NO: 49] | < 0.1
34 | H[Aib]QGTFTSDKSKYLDECAAQDFVQWLLDGGPSSGAPPPS [triple agonist of SEQ ID NO: 41] | < 0.1
35 | H[Aib]QGTFTSDYSKYLDECRQKEFVQWLLNGGPSSGAPPPSG (bridge 16-20) [triple agonist of SEQ ID NO: 37] | 6.21
36 | H[Aib]QGTFTSDYSIAMDEIHQKDFVNWLLNTKC (bridge 16-20) [triple agonist of SEQ ID NO: 35] | < 0.1
37 | H[Aib]QGTFTSDVSSYLLGQQQKEFIAWLVKGGGPSSGAPPPSC [triple agonist of SEQ ID NO: 5] | < 0.1
38 | H[Aib]QGTFTSDYSKYLDEKRQKEFVNWLLAQC (also: ring formation (underlined residues), positions not given here) [triple agonist of SEQ ID NO: 56] | 4.9
39 | H[Aib]QGTFTSDVSSYLDGQAAKEFIAWLVKGC [triple agonist of SEQ ID NO: 1] | < 0.1
40 | H[Aib]QGTFTSDYSKYLDEKRQKEFVNWLLAQKC (bridge 16-20) [triple agonist of SEQ ID NO: 34] | 0.92
41 | H[Aib]QGTFTSDVSSYLLGQQQKEFIAWLVKGC [triple agonist of SEQ ID NO: 4] | < 0.1
42 | HGQGTFTSDCSKQLDGQAAQEFVAWLLAGGPSSGAPPPS [triple agonist of SEQ ID NO: 44] | < 0.1
43 | HGQGTFTSDCSKYLDGQRAQDFVNWLLAGGPSSGAPPPS [triple agonist of SEQ ID NO: 48] | < 0.1
44 | HGQGTFTSDCSKYLDGQRAQEFVAWLLAGGPSSGAPPPS [triple agonist of SEQ ID NO: 47] | < 0.1
45 | HGQGTFTSDCSKYLDEQHAQEFVAWLLAGGPSSGAPPPS [triple agonist of SEQ ID NO: 46] | < 0.1
46 | HGQGTFTSDCSKYMDGQAAQDFVAWLLAGGPSSGAPPPS [triple agonist of SEQ ID NO: 45] | < 0.1
47 | H[Aib]QGTFTSDYSKYLDEKRAKEFVQWLLDHHPSSGQPPPSC (bridge 16-20) [triple agonist of SEQ ID NO: 50] | 50.5
48 | Y[Aib]QGTFTSDYSKYLDEKRAKEFVQWLLDHHPSSGQPPPSC (bridge 16-20) [triple agonist of SEQ ID NO: 42] | 206
49 | H[Aib]QGTFTSDYSKYLDGQHAQCFVAWLLAGGGPSSGAPPPS [triple agonist of SEQ ID NO: 39] | 0.53
50 | H[Aib]EGTFTSDYSIAMDEIHQKDFVDWLLAEC (bridge 16-20) [triple agonist of SEQ ID NO: 54] | 1.4
51 | H[Aib]QGTFTSDYSIAMDEIHQKDFVNWLLAQC (bridge 16-20) [triple agonist of SEQ ID NO: 55] | 0.7
52 | H[Aib]QGTFTSDYSKYLCEKRQKEFVQWLLNGGPSSGAPPPSG (bridge 16-20) [triple agonist of SEQ ID NO: 36] | 0.39

What follows are binders tested against human GLP-1 receptor (human, UniProt P43220 24-463) (assay: cell-based or functional assay).

Row | Binder | In vitro activity compared to native-type peptide (%), vs GLP-1 [%]
53 | Y[Aib]QGTFTSDYSKYLDEKRAKEFVQWLLDHHCSSGQPPPS (bridge 16-20) [triple agonist of SEQ ID NO: 43] | 12.6
54 | H[Aib]QGTFTSDYSKYLDEKRQKEFVQWLLDTC (bridge 16-20) [triple agonist of SEQ ID NO: 52] | 44.1
55 | H[Aib]QGTFTSDKSKYLDERACQDFVQWLLDGGPSSGAPPPS [triple agonist of SEQ ID NO: 40] | 75.2
56 | H[Aib]QGTFTSDYSKYLDEKRQKEFVQWLLNTC (bridge 16-20) [triple agonist of SEQ ID NO: 51] | 14.4
57 | H[Aib]EGTFTSDYSIAMDEIHQKDFVNWLLAQC (bridge 16-20) [triple agonist of SEQ ID NO: 53] | 161
58 | H[Aib]QGTFTSDVSSYLDGQAAKEFVAWLLKGC [triple agonist of SEQ ID NO: 6] | 17
59 | [Acetyl(2-(4-imidazolyl))][Aib]QGTFTSDYSICMDEIHQKDFVNWLLNTK (bridge 16-20) [triple agonist of SEQ ID NO: 49] | 29.8
60 | H[Aib]QGTFTSDKSKYLDECAAQDFVQWLLDGGPSSGAPPPS [triple agonist of SEQ ID NO: 41] | 34.3
61 | H[Aib]QGTFTSDYSKYLDECRQKEFVQWLLNGGPSSGAPPPSG (bridge 16-20) [triple agonist of SEQ ID NO: 37] | 236
62 | H[Aib]QGTFTSDYSIAMDEIHQKDFVNWLLNTKC (bridge 16-20) [triple agonist of SEQ ID NO: 35] | 7.5
63 | H[Aib]QGTFTSDVSSYLLGQQQKEFIAWLVKGGGPSSGAPPPSC [triple agonist of SEQ ID NO: 5] | 42.1
64 | H[Aib]QGTFTSDYSKYLDEKRQKEFVNWLLAQC (also: ring formation (underlined residues), positions not given here) [triple agonist of SEQ ID NO: 56] | 57.9
65 | H[Aib]QGTFTSDVSSYLDGQAAKEFIAWLVKGC [triple agonist of SEQ ID NO: 1] | 3.2
66 | [Acetyl(2-(4-imidazolyl))][Aib]QGTFTSDKSSYLDERAAQDFVQWLLDGGPSSGAPPPSS [triple agonist of SEQ ID NO: 38] | 2.3
67 | H[Aib]QGTFTSDYSKYLDEKRQKEFVNWLLAQKC (bridge 16-20) [triple agonist of SEQ ID NO: 34] | 19.1
68 | H[Aib]QGTFTSDVSSYLLGQQQKEFIAWLVKGC [triple agonist of SEQ ID NO: 4] | 8.5
69 | HGQGTFTSDCSKQLDGQAAQEFVAWLLAGGPSSGAPPPS [triple agonist of SEQ ID NO: 44] | 1.3
70 | HGQGTFTSDCSKYLDGQRAQDFVNWLLAGGPSSGAPPPS [triple agonist of SEQ ID NO: 48] | 1.5
71 | HGQGTFTSDCSKYLDGQRAQEFVAWLLAGGPSSGAPPPS [triple agonist of SEQ ID NO: 47] | 2.4
72 | HGQGTFTSDCSKYLDEQHAQEFVAWLLAGGPSSGAPPPS [triple agonist of SEQ ID NO: 46] | 1.4
73 | HGQGTFTSDCSKYMDGQAAQDFVAWLLAGGPSSGAPPPS [triple agonist of SEQ ID NO: 45] | 6.6
74 | H[Aib]QGTFTSDYSKYLDEKRAKEFVQWLLDHHPSSGQPPPSC (bridge 16-20) [triple agonist of SEQ ID NO: 50] | 67.4
75 | Y[Aib]QGTFTSDYSKYLDEKRAKEFVQWLLDHHPSSGQPPPSC (bridge 16-20) [triple agonist of SEQ ID NO: 42] | 33.9
76 | H[Aib]QGTFTSDYSKYLDGQHAQCFVAWLLAGGGPSSGAPPPS [triple agonist of SEQ ID NO: 39] | 13.9
77 | H[Aib]EGTFTSDYSIAMDEIHQKDFVDWLLAEC (bridge 16-20) [triple agonist of SEQ ID NO: 54] | 30.6
78 | H[Aib]QGTFTSDYSIAMDEIHQKDFVNWLLAQC (bridge 16-20) [triple agonist of SEQ ID NO: 55] | 27.1
79 | H[Aib]QGTFTSDYSKYLCEKRQKEFVQWLLNGGPSSGAPPPSG (bridge 16-20) [triple agonist of SEQ ID NO: 36] | 37.4

From patent US20230381333A1 (HANMI PHARM, published 2023)
